Test results: PMC12337344
Each block holds one substance with its values, some of them ahead of it.

Key:
[1] = biological target: G2L4 RT NTE mutant (R12A, Y15A, R19A) (Pseudomonas aeruginosa); assay: native gel or EMSA; nondenaturing gel of WT and mutant G2L4 RT proteins; proportions running as monomer or dimer (SI Appendix, Fig. S10C)
[2] = biological target: MBP-tagged G2L4 RT R190E/R191E (Pseudomonas aeruginosa); assay: SEC; gel filtration profiles of MBP-tagged WT and RT3a mutant G2L4 RTs (SI Appendix, Fig. S4 A and B)
[3] = biological target: G2L4 RT with an A instead of an I at the active site (Pseudomonas aeruginosa); assay: native gel or EMSA; nondenaturing gel of WT and mutant G2L4 RT proteins; proportions running as monomer or dimer (SI Appendix, Fig. S10C)
[4] = biological target: MBP-tagged wild-type G2L4 RT (Pseudomonas aeruginosa); assay: SEC; gel filtration profiles of MBP-tagged WT and RT3a mutant G2L4 RTs (SI Appendix, Fig. S4 A and B)
[5] = biological target: MBP-tagged wild-type G2L4 RT (Pseudomonas aeruginosa); assay: native gel or EMSA; nondenaturing gel of WT and mutant G2L4 RT proteins; proportions running as monomer or dimer (SI Appendix, Fig. S10C)
[6] = biological target: G2L4 RT with deletion of C-terminal residues 401 to 411 (Pseudomonas aeruginosa); assay: not stated; dimer state of G2L4 RT after removal of the MBP tag and after deletion of residues 401 to 411 (SI Appendix, Fig. S10 A and B)
[7] = biological target: G2L4 RT NTE + Thumb mutant (R12A, Y15A, R398A) (Pseudomonas aeruginosa); assay: native gel or EMSA; nondenaturing gel of WT and mutant G2L4 RT proteins; proportions running as monomer or dimer (SI Appendix, Fig. S10C)
[8] = biological target: MBP-tagged G2L4 RT R191E/I202E (Pseudomonas aeruginosa); assay: SEC; gel filtration profiles of MBP-tagged WT and RT3a mutant G2L4 RTs (SI Appendix, Fig. S4 A and B)
[9] = biological target: G2L4 RT without the N-terminal MBP tag (Pseudomonas aeruginosa); assay: not stated; dimer state of G2L4 RT after removal of the MBP tag and after deletion of residues 401 to 411 (SI Appendix, Fig. S10 A and B)
[10] = biological target: MBP-tagged G2L4 RT R190E/I202E (Pseudomonas aeruginosa); assay: SEC; gel filtration profiles of MBP-tagged WT and RT3a mutant G2L4 RTs (SI Appendix, Fig. S4 A and B)
[11] = biological target: G2L4 RT Thumb mutant (R397A, R398A, R404A) (Pseudomonas aeruginosa); assay: native gel or EMSA; nondenaturing gel of WT and mutant G2L4 RT proteins; proportions running as monomer or dimer (SI Appendix, Fig. S10C)
[12] = biological target: G2L4 RT (Pseudomonas aeruginosa group II intron-like reverse transcriptase), full-length, as crystallised (Pseudomonas aeruginosa); assay: SEC; size-exclusion chromatography comparing G2L4 RT to GII RT (SI Appendix, Fig. S1A)

Substance: G2L4 RT NTE mutant (R12A, Y15A, R19A) (enzyme)
percent of the protein running as monomers [1]: 12%

Substance: MBP-tagged G2L4 RT R190E/R191E (enzyme)
stoichiometry N [2]: 2

Substance: G2L4 RT with an A instead of an I at the active site (enzyme)
percent of the protein running as monomers [3]: < 7%

stoichiometry N [4]: 2 | percent of the protein running as monomers [5]: < 7%
Substance: MBP-tagged wild-type G2L4 RT (enzyme)

Substance: G2L4 RT with deletion of C-terminal residues 401 to 411 (domain or fragment)
stoichiometry N [6]: 2

Substance: G2L4 RT NTE + Thumb mutant (R12A, Y15A, R398A) (enzyme)
percent of the protein running as monomers [7]: 54%

Substance: MBP-tagged G2L4 RT R191E/I202E (enzyme)
stoichiometry N [8]: 2

stoichiometry N [9]: 2
Substance: G2L4 RT without the N-terminal MBP tag (enzyme)

Substance: MBP-tagged G2L4 RT R190E/I202E (enzyme)
stoichiometry N [10]: 2

Substance: G2L4 RT Thumb mutant (R397A, R398A, R404A) (enzyme)
percent of the protein running as monomers [11]: 35%

stoichiometry N [12]: 2
Substance: G2L4 RT (Pseudomonas aeruginosa group II intron-like reverse transcriptase), full-length, as crystallised (enzyme)
